# According to paper PMC7666158 (2020):
# What was measured:
# [1] = target: T1, JNK1-dc20 (JNK1 with the C-terminal 20 residues truncated) (human, UniProt P45983 1-427); assay: FP
# [2] = target: T1, JNK1-dc20 (JNK1 with the C-terminal 20 …); assay: FP; EDTA
# [3] = target: T1, JNK1-dc20 (JNK1 with the C-terminal 20 …); assay: ITC
# [4] = target: T1, JNK1-dc20 (JNK1 with the C-terminal 20 …); assay: ITC; 2 mM EDTA
# T1 sequence (P45983 other isoform, or with tags, fused parts or gaps): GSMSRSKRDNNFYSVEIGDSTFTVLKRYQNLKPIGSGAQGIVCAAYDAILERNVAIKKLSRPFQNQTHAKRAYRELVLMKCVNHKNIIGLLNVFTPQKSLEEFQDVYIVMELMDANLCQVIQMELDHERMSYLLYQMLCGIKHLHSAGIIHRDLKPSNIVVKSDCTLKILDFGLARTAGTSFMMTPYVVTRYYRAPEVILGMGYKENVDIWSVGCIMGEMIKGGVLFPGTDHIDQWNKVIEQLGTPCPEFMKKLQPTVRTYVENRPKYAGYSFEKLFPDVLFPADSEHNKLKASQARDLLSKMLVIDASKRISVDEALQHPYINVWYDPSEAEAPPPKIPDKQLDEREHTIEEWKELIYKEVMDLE
Binder,Kd [1],Kd [2],Kd [3],Kd [4]
"MSDDKPFLCTAPGCGQRFTNEDHLAVHKHKHEMTLKFGPA (domain or fragment) [ATF2(19–58)-His6 (MBP removed, for ITC)]",,,5.1 µM,48 µM
MSDDKPFLCTAPGCGQRFTNEDHLAVHKHKHEMTLKFGPA (domain or fragment) [ATF2(19–58) as used in the competitive fluorescence polarisation assay],4.5 µM,,,
MBP-c-Jun(1–78) K35E (domain or fragment) MTAKMETTFYDDALNASFLPSESGPYGYSNPKILEQSMTLNLADPVGSLKPHLRAKNSDLLTSPDVGLLKLASPELER,55 µM,,,

# The remaining binders from weak to strong by Kd [1], led by results:
Kd [1],Kd [2],Kd [3],Kd [4],Binder
3.8 µM,4.9 µM,,,MBP-c-Jun(1–78) (domain or fragment) MTAKMETTFYDDALNASFLPSESGPYGYSNPKILKQSMTLNLADPVGSLKPHLRAKNSDLLTSPDVGLLKLASPELER
3.5 µM,53 µM,,,MBP-ATF2(19–100) (domain or fragment) MSDDKPFLCTAPGCGQRFTNEDHLAVHKHKHEMTLKFGPARNDSVIVADQTPTPTRFLKNCEEVGLFNELASPFENEFKKAS
